Measurements: patent publication US20190263889A1
Where “and” joins values, the source holds several entries; their conditions need not be identical. Equal values may be shown once.

Assays:
[1] = biological target: CTLA-4Fc mutant protein M9 (human (murine residues substituted)); experiment: ELISA; binder 1000 ng/ml on coated target
mouse CTLA-4-Fc (mouse) [2] = biological target: mouse CTLA-4-Fc (mouse) (UniProt P09793); experiment: ELISA; binder 1000 ng/ml on coated target
[3] = biological target: human IgG1-Fc control (human) [IgG part: P01857]; experiment: ELISA; binder 1000 ng/ml on coated target
[4] = biological target: CTLA-4Fc mutant protein M5 (human (murine residues substituted)); experiment: ELISA; binder 1000 ng/ml on coated target
[5] = biological target: CTLA-4Fc mutant protein M4 (human (murine residues substituted)); experiment: ELISA; binder 1000 ng/ml on coated target
[6] = biological target: CTLA-4Fc mutant protein M10 (human (murine residues substituted)); experiment: ELISA; binder 1000 ng/ml on coated target
[7] = biological target: CTLA-4Fc mutant protein M1 (human (murine residues substituted)); experiment: ELISA; binder 1000 ng/ml on coated target
[8] = biological target: CTLA-4Fc mutant protein M2 (human (murine residues substituted)); experiment: ELISA; binder 1000 ng/ml on coated target
[9] = biological target: wild type human CTLA-4Fc fusion protein (abatacept) (human); experiment: ELISA; binder 1000 ng/ml on coated target
[10] = biological target: CTLA-4Fc mutant protein M11 (human (murine residues substituted)); experiment: ELISA; binder 1000 ng/ml on coated target
[11] = biological target: CTLA-4Fc mutant protein M6 (human (murine residues substituted)); experiment: ELISA; binder 1000 ng/ml on coated target
[12] = biological target: CTLA-4Fc mutant protein M7 (human (murine residues substituted)); experiment: ELISA; binder 1000 ng/ml on coated target
[13] = biological target: CTLA-4Fc mutant protein M3 (human (murine residues substituted)); experiment: ELISA; binder 1000 ng/ml on coated target
[14] = biological target: CTLA-4Fc mutant protein M8 (human (murine residues substituted)); experiment: ELISA; binder 1000 ng/ml on coated target
mouse CTLA-4-Fc (mouse) [15] = biological target: mouse CTLA-4-Fc (mouse) (UniProt P09793); experiment: ELISA; binder 10 ng/ml on coated target
[16] = biological target: CTLA-4Fc mutant protein M5 (human (murine residues substituted)); experiment: ELISA; binder 10 ng/ml on coated target
[17] = biological target: CTLA-4Fc mutant protein M10 (human (murine residues substituted)); experiment: ELISA; binder 10 ng/ml on coated target
[18] = biological target: CTLA-4Fc mutant protein M1 (human (murine residues substituted)); experiment: ELISA; binder 10 ng/ml on coated target
[19] = biological target: wild type human CTLA-4Fc fusion protein (abatacept) (human); experiment: ELISA; binder 10 ng/ml on coated target
[20] = biological target: CTLA-4Fc mutant protein M11 (human (murine residues substituted)); experiment: ELISA; binder 10 ng/ml on coated target
[21] = biological target: CTLA-4Fc mutant protein M7 (human (murine residues substituted)); experiment: ELISA; binder 10 ng/ml on coated target
[22] = biological target: CTLA-4Fc mutant protein M3 (human (murine residues substituted)); experiment: ELISA; binder 10 ng/ml on coated target
[23] = biological target: CTLA-4Fc mutant protein M9 (human (murine residues substituted)); experiment: ELISA; binder 0 (blank) on coated target
[24] = biological target: CTLA-4Fc mutant protein M5 (human (murine residues substituted)); experiment: ELISA; binder 0 (blank) on coated target
[25] = biological target: CTLA-4Fc mutant protein M10 (human (murine residues substituted)); experiment: ELISA; binder 0 (blank) on coated target
[26] = biological target: CTLA-4Fc mutant protein M1 (human (murine residues substituted)); experiment: ELISA; binder 0 (blank) on coated target
[27] = biological target: CTLA-4Fc mutant protein M2 (human (murine residues substituted)); experiment: ELISA; binder 0 (blank) on coated target
[28] = biological target: wild type human CTLA-4Fc fusion protein (abatacept) (human); experiment: ELISA; binder 0 (blank) on coated target
[29] = biological target: CTLA-4Fc mutant protein M11 (human (murine residues substituted)); experiment: ELISA; binder 0 (blank) on coated target
[30] = biological target: CTLA-4Fc mutant protein M7 (human (murine residues substituted)); experiment: ELISA; binder 0 (blank) on coated target
[31] = biological target: CTLA-4Fc mutant protein M3 (human (murine residues substituted)); experiment: ELISA; binder 0 (blank) on coated target
[32] = biological target: CTLA-4Fc mutant protein M9 (human (murine residues substituted)); experiment: ELISA; binder 100 ng/ml on coated target
[33] = biological target: CTLA-4Fc mutant protein M5 (human (murine residues substituted)); experiment: ELISA; binder 100 ng/ml on coated target
[34] = biological target: CTLA-4Fc mutant protein M4 (human (murine residues substituted)); experiment: ELISA; binder 100 ng/ml on coated target
[35] = biological target: CTLA-4Fc mutant protein M10 (human (murine residues substituted)); experiment: ELISA; binder 100 ng/ml on coated target
[36] = biological target: CTLA-4Fc mutant protein M1 (human (murine residues substituted)); experiment: ELISA; binder 100 ng/ml on coated target
[37] = biological target: CTLA-4Fc mutant protein M2 (human (murine residues substituted)); experiment: ELISA; binder 100 ng/ml on coated target
[38] = biological target: wild type human CTLA-4Fc fusion protein (abatacept) (human); experiment: ELISA; binder 100 ng/ml on coated target
[39] = biological target: CTLA-4Fc mutant protein M11 (human (murine residues substituted)); experiment: ELISA; binder 100 ng/ml on coated target
[40] = biological target: CTLA-4Fc mutant protein M6 (human (murine residues substituted)); experiment: ELISA; binder 100 ng/ml on coated target
[41] = biological target: CTLA-4Fc mutant protein M7 (human (murine residues substituted)); experiment: ELISA; binder 100 ng/ml on coated target
[42] = biological target: CTLA-4Fc mutant protein M3 (human (murine residues substituted)); experiment: ELISA; binder 100 ng/ml on coated target
[43] = biological target: CTLA-4Fc mutant protein M8 (human (murine residues substituted)); experiment: ELISA; binder 100 ng/ml on coated target

Chain of CTLA-4Fc mutant protein M3 (human (murine residues substituted)) (chain, as listed by the source mutant): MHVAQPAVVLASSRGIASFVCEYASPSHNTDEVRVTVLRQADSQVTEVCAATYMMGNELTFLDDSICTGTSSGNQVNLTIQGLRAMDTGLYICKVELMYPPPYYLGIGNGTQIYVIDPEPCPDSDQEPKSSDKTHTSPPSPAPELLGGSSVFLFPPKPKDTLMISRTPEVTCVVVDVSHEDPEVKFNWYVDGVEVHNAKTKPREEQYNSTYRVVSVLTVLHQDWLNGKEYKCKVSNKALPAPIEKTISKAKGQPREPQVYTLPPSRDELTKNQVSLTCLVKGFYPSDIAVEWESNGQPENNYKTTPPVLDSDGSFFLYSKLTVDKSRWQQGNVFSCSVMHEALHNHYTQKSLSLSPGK
Chain of CTLA-4Fc mutant protein M8 (human (murine residues substituted)) (chain, as listed by the source mutant): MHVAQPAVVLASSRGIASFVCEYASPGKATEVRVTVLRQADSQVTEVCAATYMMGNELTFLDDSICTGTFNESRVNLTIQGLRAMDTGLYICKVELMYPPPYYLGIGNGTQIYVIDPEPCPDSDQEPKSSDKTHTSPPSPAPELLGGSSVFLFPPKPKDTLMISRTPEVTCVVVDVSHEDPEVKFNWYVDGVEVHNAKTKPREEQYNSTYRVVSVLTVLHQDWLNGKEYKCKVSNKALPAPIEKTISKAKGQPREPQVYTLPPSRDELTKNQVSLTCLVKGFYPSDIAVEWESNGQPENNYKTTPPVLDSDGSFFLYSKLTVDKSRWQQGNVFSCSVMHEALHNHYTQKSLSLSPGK
Chain of CTLA-4Fc mutant protein M7 (human (murine residues substituted)) (chain, as listed by the source mutant): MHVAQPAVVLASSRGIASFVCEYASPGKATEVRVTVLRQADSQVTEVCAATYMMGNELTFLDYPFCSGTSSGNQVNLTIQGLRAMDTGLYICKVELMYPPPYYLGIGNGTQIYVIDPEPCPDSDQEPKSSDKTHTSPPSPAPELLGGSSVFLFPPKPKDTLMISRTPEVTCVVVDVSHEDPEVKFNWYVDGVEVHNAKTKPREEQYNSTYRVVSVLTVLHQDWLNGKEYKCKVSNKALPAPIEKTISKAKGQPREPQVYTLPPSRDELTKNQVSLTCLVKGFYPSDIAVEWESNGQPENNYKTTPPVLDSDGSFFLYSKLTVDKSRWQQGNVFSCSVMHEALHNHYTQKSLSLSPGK
Chain of CTLA-4Fc mutant protein M10 (human (murine residues substituted)) (chain, as listed by the source mutant): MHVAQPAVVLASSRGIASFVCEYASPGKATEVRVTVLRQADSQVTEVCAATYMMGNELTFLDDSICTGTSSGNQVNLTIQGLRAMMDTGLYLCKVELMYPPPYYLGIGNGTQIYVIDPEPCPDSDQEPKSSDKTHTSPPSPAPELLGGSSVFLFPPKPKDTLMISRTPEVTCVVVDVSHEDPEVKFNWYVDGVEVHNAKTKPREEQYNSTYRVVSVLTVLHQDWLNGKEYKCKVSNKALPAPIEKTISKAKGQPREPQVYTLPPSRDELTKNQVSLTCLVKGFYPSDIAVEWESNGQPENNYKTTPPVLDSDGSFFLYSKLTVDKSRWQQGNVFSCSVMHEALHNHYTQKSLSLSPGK
Chain of CTLA-4Fc mutant protein M9 (human (murine residues substituted)) (chain, as listed by the source mutant): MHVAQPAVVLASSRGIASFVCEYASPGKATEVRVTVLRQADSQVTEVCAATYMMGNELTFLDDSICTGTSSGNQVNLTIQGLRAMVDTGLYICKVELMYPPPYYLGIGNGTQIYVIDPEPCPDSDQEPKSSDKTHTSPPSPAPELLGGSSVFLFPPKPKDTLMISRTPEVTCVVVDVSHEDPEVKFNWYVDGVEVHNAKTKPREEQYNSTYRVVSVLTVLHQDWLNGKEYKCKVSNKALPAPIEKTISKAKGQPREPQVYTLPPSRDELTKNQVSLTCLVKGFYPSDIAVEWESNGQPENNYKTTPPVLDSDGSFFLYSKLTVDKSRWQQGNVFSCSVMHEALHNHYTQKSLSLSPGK
Chain of CTLA-4Fc mutant protein M11 (human (murine residues substituted)) (chain, as listed by the source mutant): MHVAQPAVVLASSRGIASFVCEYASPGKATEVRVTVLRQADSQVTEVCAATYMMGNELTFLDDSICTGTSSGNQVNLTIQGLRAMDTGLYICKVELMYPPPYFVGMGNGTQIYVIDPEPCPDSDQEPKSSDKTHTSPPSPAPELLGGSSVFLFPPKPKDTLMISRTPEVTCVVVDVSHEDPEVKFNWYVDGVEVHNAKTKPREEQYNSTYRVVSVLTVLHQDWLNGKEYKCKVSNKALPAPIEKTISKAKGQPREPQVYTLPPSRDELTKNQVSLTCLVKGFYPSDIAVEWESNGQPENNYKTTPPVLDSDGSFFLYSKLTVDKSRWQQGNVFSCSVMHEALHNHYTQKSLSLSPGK
Chain of CTLA-4Fc mutant protein M4 (human (murine residues substituted)) (chain, as listed by the source mutant): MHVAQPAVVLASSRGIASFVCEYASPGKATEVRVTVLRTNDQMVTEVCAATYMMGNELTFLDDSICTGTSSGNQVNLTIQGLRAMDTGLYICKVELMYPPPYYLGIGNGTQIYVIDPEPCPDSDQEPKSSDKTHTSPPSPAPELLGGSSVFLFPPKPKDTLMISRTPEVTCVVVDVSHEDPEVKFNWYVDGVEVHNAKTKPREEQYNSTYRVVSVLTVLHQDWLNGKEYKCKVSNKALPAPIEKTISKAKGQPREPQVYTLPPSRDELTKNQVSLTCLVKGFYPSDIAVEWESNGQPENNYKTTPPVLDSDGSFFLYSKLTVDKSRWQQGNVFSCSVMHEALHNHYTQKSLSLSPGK
Chain of CTLA-4Fc mutant protein M6 (human (murine residues substituted)) (chain, as listed by the source mutant): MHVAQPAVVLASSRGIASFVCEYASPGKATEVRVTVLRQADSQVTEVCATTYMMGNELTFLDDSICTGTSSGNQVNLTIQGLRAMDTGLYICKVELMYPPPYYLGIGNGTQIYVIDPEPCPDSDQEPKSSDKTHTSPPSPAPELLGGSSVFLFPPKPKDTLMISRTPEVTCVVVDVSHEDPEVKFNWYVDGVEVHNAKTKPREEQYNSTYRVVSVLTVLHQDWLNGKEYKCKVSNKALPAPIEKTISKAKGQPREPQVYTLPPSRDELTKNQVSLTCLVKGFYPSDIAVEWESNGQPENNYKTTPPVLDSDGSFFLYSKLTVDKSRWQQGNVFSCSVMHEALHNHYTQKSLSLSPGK
Chain of wild type human CTLA-4Fc fusion protein (abatacept) (human) (chain, as listed by the source limits assumed): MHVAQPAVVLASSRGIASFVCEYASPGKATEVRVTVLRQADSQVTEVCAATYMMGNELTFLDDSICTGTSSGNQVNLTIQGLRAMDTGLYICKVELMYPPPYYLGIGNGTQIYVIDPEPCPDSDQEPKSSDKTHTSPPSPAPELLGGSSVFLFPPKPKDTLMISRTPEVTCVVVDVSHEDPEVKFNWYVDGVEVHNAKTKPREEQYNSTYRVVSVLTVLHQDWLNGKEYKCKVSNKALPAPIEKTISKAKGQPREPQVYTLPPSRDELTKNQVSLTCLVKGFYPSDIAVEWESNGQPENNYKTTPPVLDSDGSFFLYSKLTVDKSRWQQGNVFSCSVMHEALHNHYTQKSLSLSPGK
Chain of CTLA-4Fc mutant protein M5 (human (murine residues substituted)) (chain, as listed by the source mutant): as the sequence (chain, as listed by the source limits assumed) above, with Y52F, M53T, M54E, G55K, E57T, L58V, T59G counted along it
Chain of CTLA-4Fc mutant protein M1 (human (murine residues substituted)) (chain, as listed by the source mutant): as the sequence (chain, as listed by the source limits assumed) above, with M1I, H2Q, A4T, A7S counted along it
Chain of CTLA-4Fc mutant protein M2 (human (murine residues substituted)) (chain, as listed by the source mutant): as the sequence (chain, as listed by the source limits assumed) above, with R14H, I16L, V20P counted along it
Chain of mouse CTLA-4-Fc (mouse) (P09793 36-161 limits assumed): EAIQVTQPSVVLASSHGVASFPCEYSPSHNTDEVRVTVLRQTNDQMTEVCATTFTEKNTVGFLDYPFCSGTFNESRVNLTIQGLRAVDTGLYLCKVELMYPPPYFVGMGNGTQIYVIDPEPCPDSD

OD450 [1]: 1.12 OD450 and 1.18 OD450
OD450 (mouse CTLA-4-Fc (mouse) [2]): 0.942 OD450 and 0.94 OD450
OD450 [3]: 1.39 OD450 and 1.47 OD450
OD450 [4]: 3.41 OD450 and 3.54 OD450
OD450 [5]: 3.08 OD450 and 3.15 OD450
OD450 [6]: 0.945 OD450 and 0.941 OD450
OD450 [7]: 3.51 OD450
OD450 [8]: 2.83 OD450 and 2.75 OD450
OD450 [9]: 3.57 OD450 and 3.67 OD450
OD450 [10]: 2.89 OD450 and 2.91 OD450
OD450 [11]: 3.28 OD450 and 3.32 OD450
OD450 [12]: 3.3 OD450 and 3.35 OD450
OD450 [13]: 3.33 OD450 and 3.3 OD450
OD450 [14]: 3.35 OD450 and 3.44 OD450
OD450 (mouse CTLA-4-Fc (mouse) [15]): 0.201 OD450 and 0.18 OD450
OD450 [16]: 1.85 OD450 and 1.8 OD450
OD450 [17]: 0.157 OD450
OD450 [18]: 2.69 OD450 and 2.78 OD450
OD450 [19]: 1.71 OD450 and 1.8 OD450
OD450 [20]: 0.19 OD450 and 0.194 OD450
OD450 [21]: 0.837 OD450 and 0.884 OD450
OD450 [22]: 0.623 OD450 and 0.593 OD450
OD450 [23]: 0.179 OD450 and 0.166 OD450
OD450 [24]: 0.189 OD450 and 0.176 OD450
OD450 [25]: 0.179 OD450 and 0.166 OD450
OD450 [26]: 0.196 OD450 and 0.187 OD450
OD450 [27]: 0.2 OD450 and 0.185 OD450
OD450 [28]: 0.202 OD450 and 0.195 OD450
OD450 [29]: 0.183 OD450 and 0.167 OD450
OD450 [30]: 0.198 OD450 and 0.176 OD450
OD450 [31]: 0.187 OD450 and 0.18 OD450
OD450 [32]: 0.295 OD450 and 0.304 OD450
OD450 [33]: 2.84 OD450 and 2.99 OD450
OD450 [34]: 2.14 OD450 and 1.41 OD450
OD450 [35]: 0.215 OD450 and 0.216 OD450
OD450 [36]: 3.25 OD450 and 3.24 OD450
OD450 [37]: 1.38 OD450 and 1.16 OD450
OD450 [38]: 3.05 OD450 and 3.02 OD450
OD450 [39]: 0.635 OD450 and 0.759 OD450
OD450 [40]: 2.7 OD450 and 2.77 OD450
OD450 [41]: 2.5 OD450 and 2.48 OD450
OD450 [42]: 2.32 OD450 and 2.35 OD450
OD450 [43]: 2.91 OD450 and 2.84 OD450
Substance: chimeric L3D10 anti-human CTLA-4 antibody
